# Source: patent US20160053022A1 (PETER MACCALLUM CANCER INSTITUTE, published 2016)
# Tests used:
# hRYK.Fc = target: T1, hRYK.Fc (human, UniProt P34925 26-227); assay: ELISA: immobilized RWD1 probed with hRYK.Fc; the concentration on the axis is that of the RWD1 used for immobilization, the hRYK.Fc concentration of this graph is not given
# T1 construct: extracellular domain; also called hRYK.Fc.FLAG; FLAG-tagged hRYK.Fc; not shown: Fc
# Method: Purified RWD1 antibody (20 μg) was used in immunoprecipitation experiments, to determine its ability to inhibit hRYK.Fc binding to Wnt3a.Myc5 or Wnt5a.Myc5 (10 μg and 20 μg, respectively; of transfected HEK293T cell lysate). Immunoprecipitations (IP) were performed to pull down hRYK.Fc (250 ng), then immunoblotted (IB) with an anti-Myc tag antibody to detect Wnt binding. Molecular mass standards are shown at the left in kDa. IgG, normal human IgG. (B) ELISA results of immobilized RWD1 antibody probed with hRYK.Fc protein. […] Results represent the mean±standard deviation of two to three independent experiments. IgG, normal human IgG; OD, optical density.
# RYK binding was determined by ELISA as described previously (Davydova N, et al., 2011, J Mol Biol 407: 581-593), using bound RWD1 and probed with purified hRYK.Fc. All SPRi analyses were performed at 25° C. using HBST (10 mM HEPES, pH 7.4, 150 mM NaCl, 0.05% (v/v) Tween-20) as the running buffer. A ProteOn XPR36 SPRi biosensor, GLC sensor chips and coupling reagents (10 mM sodium acetate, pH 4.5; sulfo-N-hydroxysuccinimide (SNHS); 1-ethyl-3-(3-dimethylaminopropyl)-carbodiimide hydrochloride (EDC); and ethanolamine) were purchased from Bio-Rad Laboratories. All antibodies and ligands used for kinetic analysis were buffer exchanged with PBS. Immobilizations were performed at 30 μl/min on the GLC chip. […]
# hRYKWD.Fc [1] = target: T2, hRYKWD.Fc (human, UniProt P34925 66-194, limits assumed); assay: SPRi (ProteOn XPR36, GLC chip), RWD1 immobilized, hRYKWD.Fc injected at 31.25-500 nM, 25 °C; calculated from ka and kd
# T2 construct: domain: WIF domain; also called hRYKWD.Fc.FLAG; fusion protein containing the human RYK WIF domain; not shown: Fc region of human IgG1
# Method: (§1) RYK binding was determined by ELISA as described previously (Davydova N, et al., 2011, J Mol Biol 407: 581-593), using bound RWD1 and probed with purified hRYK.Fc. All SPRi analyses were performed at 25° C. using HBST (10 mM HEPES, pH 7.4, 150 mM NaCl, 0.05% (v/v) Tween-20) as the running buffer. A ProteOn XPR36 SPRi biosensor, GLC sensor chips and coupling reagents (10 mM sodium acetate, pH 4.5; sulfo-N-hydroxysuccinimide (SNHS); 1-ethyl-3-(3-dimethylaminopropyl)-carbodiimide hydrochloride (EDC); and ethanolamine) were purchased from Bio-Rad Laboratories. All antibodies and ligands used for kinetic analysis were buffer exchanged with PBS. Immobilizations were performed at 30 μl/min on the GLC chip. Prior to immobilization, chips were preconditioned with two sequential 10 sec pulses of 50 mM NaOH, 100 mM HCl and 0.5% SDS, followed by equilibration with HBST. For surface activation, 0.4 M EDC and 0.1 M SNHS were each diluted 50-fold in water and mixed together to give a final composition of 8 mM EDC in 2 mM SNHS. Separate vertical channels were activated with 150 μl of the EDC/SNHS mixture. IgGs for immobilization (RWD1 antibody and normal human IgG (R&D Systems; control)) were diluted to 50 μg/ml in 10 mM acetate, pH 4.5, and coupled (3×150 μl) along separate vertical channels followed by an injection of ethanolamine (150 μl) to block the reaction spots. […]
# hRYKWD.Fc [2] = target: T2, hRYKWD.Fc; assay: SPRi (ProteOn XPR36, GLC chip), RWD1 immobilized, hRYKWD.Fc injected at 31.25-500 nM, 25 °C, global 1:1 Langmuir fit with mass transfer
# Method: as §1
# T2 sequence (P34925 66-194 limits assumed): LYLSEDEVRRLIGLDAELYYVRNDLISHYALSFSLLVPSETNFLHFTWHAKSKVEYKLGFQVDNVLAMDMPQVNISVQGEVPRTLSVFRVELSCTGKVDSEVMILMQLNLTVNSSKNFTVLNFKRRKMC
# T1 sequence (P34925 26-227): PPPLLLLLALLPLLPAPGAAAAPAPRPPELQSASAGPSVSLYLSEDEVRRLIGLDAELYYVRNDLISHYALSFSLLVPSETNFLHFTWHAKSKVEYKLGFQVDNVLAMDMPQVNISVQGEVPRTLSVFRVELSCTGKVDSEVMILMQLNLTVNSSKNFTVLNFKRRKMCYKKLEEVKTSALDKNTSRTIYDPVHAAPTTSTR
binder,measurement,setting,value
"RWD1 (antibody, human IgG1, kappa, V domains shown, Variable regions of scFv3 grafted onto a human IgG1 gamma heavy chain and human kappa light chain; fully human monoclonal antibody; also called RWD1 antibody) VH: EVQLLESGGGLVQPGGSLRLSCAASGFTFSSYAMSWVRQAPGKGLEWVSLIHKAGHTTQYADSVKGRFTISRDNSKNTLYLQMNSLRAEDTAVYYCAKGYRHFDYWGQGTLVTVSS VL: DIQMTQSPSSLSASVGDRVAITCRASQSISSYLNWYQQKPGKAPKLLIYRASNLQSGVPSRFSGSGSGTDFTLTISSLQPEDFATYYCQQAVGSPRTFGQGTKVEIKR",EC50 (read off the curve),hRYK.Fc,~5 µg/mL
same,Kd,hRYKWD.Fc [1],4.2 nM
same,koff,hRYKWD.Fc [2],0.00037 s⁻¹
same,kon,hRYKWD.Fc [2],88000 M⁻¹ s⁻¹
